Tested on: MS2 coat protein
Assay: apparent KD of MS2 coat protein; higher = weaker reporter binding
Settings: Eterna round: R107
Summary of the method: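 In 100 mM Tris-HCl pH 7.5 with 80 mM KCl and 4 mM MgCl2, and without or with constant ligand, SNAP-549-labelled MS2 coat protein was titrated in twofold steps from 0.7 or 1.5 nM to 3 µM. Per-step times went from 0.8–1.5 h down to 10–20 min. The RNA switches were transcribed on-chip from Illumina sequencing clusters, and apparent KD is the per-design median of normalised cluster binding-curve fits.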

[1] = input ligand: theophylline 20 uM
[2] = input ligand: theophylline 2 mM
[3] = input ligand: tryptophan 2.4 mM

Row | Sequence | apparent KD of MS2 coat protein (input ligand: arginine 13.2 mM) [nM] | apparent KD of MS2 coat protein (input ligand: none) [nM] | apparent KD of MS2 coat protein [1] [nM] | apparent KD of MS2 coat protein [2] [nM] | apparent KD of MS2 coat protein [3] [nM]
1 | UGAGUUAGACAAAAGUCUAGCUCUGGUGAAGGAGCGUCCGAAAGGACAGGUAGGUCGCACCACAUGAGGAUCACCCAUGUUCCUU [ArgAS 10 #OpenEnded] | 112 | 227 | 192 | 323 | 216
2 | AAAGGUCGGACGGCCGCCACUGGCUAGGUGGGUUCCGGGAUUACAUGAGGAUCACCCAUGUAUACCAGGACCGGGUUCGCCUCGU [Lageonor] | 9.51 | 11.9 | 12.2 | 8.28 | 17.8
3 | AUAAUAGGGAUAAUUAGUUUUAGGUCCAGUCGAGGACCGGUACGGCCGCCACUCGUACAGAAAUACAUGAGGAUCACCCAUGUUA [JR_SSTryptoA_Sub005] | 14 | 13.6 | 21.5 | 15.1 | 16.1
4 | UAUGCACAUGAGGAUCACCCAUGUAUGGAAGGAGCGGUGAAUGAACCAGGUAGGUCGCCAUGGUGAGGAUCAUCUAUGUAUUCGU [Exclusion - Arginine A (Freestyle 8)] | 49.1 | 81 | 101 | 117 | 71.7
5 | CCACAUGAGGAUCACCCAUGUAUAGUUGAAGGAGCGAUCAUUAGGUCAGGUAGGUCGCAGCACAUGAGGAUCACCCAUGUCGAAA [DOUBLE!!! :-D #3] | 41.2 | 64.8 | 60.9 | 72.8 | 58.4
6 | UGACAUUGCUCAGAUACCAGACUUGAGGAACACCCAAGUGCCAACAAGUAUAUAAUAAAAGUCCCUUGGCAGCUGAGCAAUGUCU [TheoBX 19 #MS2Left #AlternativeMS2 #Theo2] | 42.8 | 47.8 | 105 | 318 | 45.3
7 | AACAUGAGGAUCACCCAUGUACAUUUCGAUCGAGGACCGGUACGGCCGCCACUCGAAAACAUGAGGAUCACCCAUGUUCAACAGG [Tryp A SS t4] | 65 | – | 336 | 390 | –
8 | UAUACAUGAGGAUCACCCAUGUACCAUGAAGGAGCGCAGAAAUCUGCAGGUAGGUCGCAUGGGUUAUGACCUCGGCAUAAUAACG [Enreusus] | 40.5 | 27.8 | 46.9 | 39.7 | 26.2
9 | UAUGUGAUAGUCGUACUCUCACACUGAGAAGGAGCGCGAUAGUUCGCAGGUAGGUCGCUCAGUUAUACAUGAGGAUCACCCAUGU [Isrice] | 25.3 | 32.6 | 32.9 | 32.4 | 26.4
10 | CCCAAAUAGAUCUUUGGAAUUUUACUCGAAGGAGCGUCAUAGUAGGCAGGUAGGUCGCGAGACAUGAGGAUCACCCAUGUAGAGA [kinmullin] | 18.7 | 53.7 | 35.5 | 45.8 | 32.4
11 | GUCUCUGAGAGAAGGAGCGUGAAGACAUGAGGAUCACCCAUGUAGAGGCGCCGACGGCGUUCGCAGGUAGGUCGCUCUCAGAGAC [#1 Same State - Arginine B Attempt #19 (HarryS)] | 38.4 | 22 | 35 | 17.1 | 23.7
12 | AGAGUUAGACAAAAGUCUAGCUCACCAGAAGGAGCGUCCGAAAGGACAGGUAGGUCGCUGGUACCUGAGGAUCACCCGGGUUCCU [ArgAS 17 #OpenEnded #AlternativeMS2] | 134 | 282 | 172 | 244 | 80.5
13 | AAAAUCCUACCUGAGGAUCACCCUGGUGAAGGAGCGCCCGAAAGGGCAGGUAGGUCGCACCUGAGGAUCACCCAGGUAACCUAAA [ArgEX 13 #DoubleMS2 #OpenEnded #AlternativeMS2] | 31.7 | 49.2 | 40.7 | 44.1 | 47
14 | CGGCCCUCACAUGAGGAUCACCCAUGUGAUACCAGCCUGGAAACAGGCCCUUGGCAGCACAGGUCAUCAAAAGAUGACCAAGCCG [TheoAX 21 #SwitchBubble] | 15.1 | – | 20.5 | – | 11.8
15 | AGACAUGAGGAUCACCCAUGUAGCACGGAUACCAGAUCCAGAUGUAUCCCUUGGCAGCUGUGGUACAGCGUUGCAACGCUCCUAG [Exclusion - Theophylline A (Freestyle 17)] | 17.6 | – | 28.5 | – | 18.1
16 | AAUUAGAUGUCGGCCGCCACUGAUGUGUCUGUUGCGUCCAGUGUGUACAUGAGGAUCACCCAUGUCAGGACCGGGACUUUAAAUU [Sodigeedar] | 12.4 | – | 13.5 | 12.3 | –
17 | GAGUCCGCGGCGGCCGCCACUCGCGAUAUAACAUGAUAUCAGGACAUGAGGAUCACCCAUGUCACGAGGACCGGGCCGAUCCUCA [Same State Typptophan B GF 5] | 17 | – | 49.2 | 35.8 | –
18 | UGUAUGUGAUUUGAUACCAGACCAGCUGGUGGUACUUGAGGAUCACCCAAGUAGGUUUGGGUCCCUUGGCAGCAAAUCGCAUACU [SS Theo B #24 Ms10] | 165 | 163 | 142 | 30.8 | 198

From the supplement of paper PMC9170038
